This note sets out measurements from article PMC9352680, “A comprehensive thermodynamic model for RNA binding by the Saccharomyces cerevisiae Pumilio protein PUF4”.

Substitutions are numbered along the chain they refer to. In names and notes the source's numbering stands.

To fix the notation:
T1: PUF4 RNA-binding domain (Saccharomyces cerevisiae, UniProt P25339 537-888)
T1 sequence: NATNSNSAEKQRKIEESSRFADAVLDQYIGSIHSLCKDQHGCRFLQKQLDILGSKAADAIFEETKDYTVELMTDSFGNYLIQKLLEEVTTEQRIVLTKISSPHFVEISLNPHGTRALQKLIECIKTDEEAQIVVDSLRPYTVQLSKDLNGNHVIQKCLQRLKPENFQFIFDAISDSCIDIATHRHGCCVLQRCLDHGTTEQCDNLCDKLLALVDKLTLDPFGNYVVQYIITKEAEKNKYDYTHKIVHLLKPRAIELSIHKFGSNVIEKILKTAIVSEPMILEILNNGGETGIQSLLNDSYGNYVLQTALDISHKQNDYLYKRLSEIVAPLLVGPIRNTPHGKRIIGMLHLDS

B1: Id_ii_S4_P3E.2_K3.1_C3.2_[T-1A]_H3.1_A3.1_F3.1_T3.2_[T9A]_[A10C] (ssRNA)
RNA: UUUGACAACUGAUCGUUCUUUCUCAUGUAUAUAACUUCUUUCUCGAUCAGUUGUCUUU
B2: Id_ii_S4_P3E.3_K3.2_C3.2_[C-2G]_[T-1C]_H3.2_A3.1_F3.1_T3.2_[T9C]_[A10T] (ssRNA)
RNA: B1 RNA with C24G, A25C, G27A, A34C, C35U
B3: Id_ii_S4_P3E.3_K3.2_C3.2_[C-2A]_H3.2_A3.1_F3.1_T3.2_[A10T] (ssRNA)
RNA: B1 RNA with C24A, A25U, G27A, A34U, C35U
B4: Id_ii_S4_P3E.3_K3.2_C3.2_[C-2T]_[T-1G]_H3.2_A3.1_F3.1_T3.2_[T9A]_[A10T] (ssRNA)
RNA: B1 RNA with C24U, A25G, G27A, C35U
B5: Id_ii_S4_P3E.2_K3.1_C3.2_H3.1_A3.1_F3.1_T3.2_[A10T] (ssRNA)
RNA: B1 RNA with A25U, A34U, C35U
B6: Id_ii_S4_P3E.3_K3.2_C3.2_[C-2T]_[T-1A]_H3.2_A3.1_F3.1_T3.2_[T9C] (ssRNA)
RNA: B1 RNA with C24U, G27A, A34C, C35A
B7: Id_ii_S4_P3E.3_K3.2_C3.2_[C-2A]_H3.2_A3.1_F3.1_T3.2_[T9A] (ssRNA)
RNA: B1 RNA with C24A, A25U, G27A, C35A
B8: Id_ii_S4_P3E.3_K3.2_C3.2_[C-2A]_[T-1A]_H3.2_A3.1_F3.1_T3.2_[T9A]_[A10C] (ssRNA)
RNA: B1 RNA with C24A, G27A
B9: Id_ii_S4_P3E.3_K3.2_C3.2_[C-2G]_H3.2_A3.1_F3.1_T3.2 (ssRNA)
RNA: B1 RNA with C24G, A25U, G27A, A34U, C35A
B10: Id_ii_S4_P3E.3_K3.2_C3.2_[C-2T]_[T-1C]_H3.2_A3.1_F3.1_T3.2_[A10T] (ssRNA)
RNA: B1 RNA with C24U, A25C, G27A, A34U, C35U
B11: Id_ii_S4_P3E.2_K3.1_C3.2_[T-1A]_H3.1_A3.1_F3.1_T3.2 (ssRNA)
RNA: B1 RNA with A34U, C35A
B12: Id_ii_S4_P3E.3_K3.2_C3.2_[C-2G]_H3.2_A3.1_F3.1_T3.2_[T9A]_[A10G] (ssRNA)
RNA: B1 RNA with C24G, A25U, G27A, C35G
B13: Id_ii_S4_P3E.3_K3.2_C3.2_[C-2A]_[T-1C]_H3.2_A3.1_F3.1_T3.2_[T9C] (ssRNA)
RNA: B1 RNA with C24A, A25C, G27A, A34C, C35A
B14: Id_ii_S4_P3E.3_K3.2_C3.2_[C-2A]_[T-1C]_H3.2_A3.1_F3.1_T3.2_[T9C]_[A10G] (ssRNA)
RNA: B1 RNA with C24A, A25C, G27A, A34C, C35G
B15: Id_ii_S4_P3E.3_K3.2_C3.2_[C-2G]_[T-1C]_H3.2_A3.1_F3.1_T3.2_[A10T] (ssRNA)
RNA: B1 RNA with C24G, A25C, G27A, A34U, C35U
B16: Id_ii_S4_P3E.3_K3.2_C3.2_[C-2T]_[T-1C]_H3.2_A3.1_F3.1_T3.2_[T9A]_[A10T] (ssRNA)
RNA: B1 RNA with C24U, A25C, G27A, C35U
B17: Id_ii_S4_P3E.3_K3.2_C3.2_[C-2A]_H3.2_A3.1_F3.1_T3.2_[T9C]_[A10T] (ssRNA)
RNA: B1 RNA with C24A, A25U, G27A, A34C, C35U
B18: Id_ii_S4_P3E.3_K3.2_C3.2_[C-2T]_[T-1C]_H3.2_A3.1_F3.1_T3.2_[A10C] (ssRNA)
RNA: B1 RNA with C24U, A25C, G27A, A34U
B19: Id_ii_S4_P3E.3_K3.2_C3.2_[C-2T]_[T-1C]_H3.2_A3.1_F3.1_T3.2_[T9C] (ssRNA)
RNA: B1 RNA with C24U, A25C, G27A, A34C, C35A
B20: Id_ii_S4_P3E.3_K3.2_C3.2_[C-2T]_[T-1A]_H3.2_A3.1_F3.1_T3.2_[T9A]_[A10C] (ssRNA)
RNA: B1 RNA with C24U, G27A
B21: Id_ii_S4_P3E.3_K3.2_C3.2_[C-2A]_[T-1C]_H3.2_A3.1_F3.1_T3.2_[T9C]_[A10T] (ssRNA)
RNA: B1 RNA with C24A, A25C, G27A, A34C, C35U
B22: Id_ii_S4_P3E.3_K3.2_C3.2_[C-2G]_H3.2_A3.1_F3.1_T3.2_[A10T] (ssRNA)
RNA: B1 RNA with C24G, A25U, G27A, A34U, C35U
B23: Id_ii_S4_P3E.2_K3.1_C3.2_[T-1A]_H3.1_A3.1_F3.1_T3.2_[T9A] (ssRNA)
RNA: B1 RNA with C35A
B24: Id_ii_S4_P3E.3_K3.2_C3.2_[C-2A]_[T-1A]_H3.2_A3.1_F3.1_T3.2_[T9C]_[A10T] (ssRNA)
RNA: B1 RNA with C24A, G27A, A34C, C35U
B25: Id_ii_S4_P3E.3_K3.2_C3.2_[C-2A]_[T-1A]_H3.2_A3.1_F3.1_T3.2_[T9A] (ssRNA)
RNA: B1 RNA with C24A, G27A, C35A

This series addresses T1, PUF4 RNA-binding domain. Nature of the series: Mg; RNA-MaP; 20 mM Na-HEPES pH 7.4, 30 mM KOAc, 0.75 mM MgCl2, 0.1% Tween-20, 5% glycerol, 0.1 mg/mL BSA, 2 mM DTT; 25 C; 0.0125-409.6 nM protein. Conditions: tags: N-His6-TEV cleaved; C-SNAP kept, Cy3B-labelled; label: tethered on chip by stalled RNA polymerase.
Regarding UCUCUUCGUAUCAUUAUCUCUU (ssRNA) [Ib_S1_P5E.1_K5.1_C5.1_H5.1_[T1C]_A5.1_[T6C]_F5.1_T5.1], binding was characterised by a dissociation constant (Kd) of 1380 nM.

As for UCUCUUAGUAUUUUUAUCUCUU (ssRNA) [Ib_S1_P5E.1_K5.1_C5.1_H5.1_[T1A]_A5.1_[A7T]_F5.1_T5.1], the Kd (as a rule, the concentration at which binding is half-saturated) stood at 1470 nM.

For B1, binding was characterised by a dissociation constant (Kd) of 4.63 nM.

B2 displayed a Kd of 557 nM.

Consider B3, for which the affinity, expressed as Kd, was 203 nM.

The molecule B4 gave a Kd of 1.81 nM.

As for B5, the affinity, expressed as Kd, was 1.14 nM.

For B6, the Kd was 94.6 nM.

In turn, B7 came in with a Kd of 831 nM.

The molecule B8 yielded a Kd of 445 nM.

B9 showed a Kd of 43.8 nM.

Regarding B10, binding was characterised by a dissociation constant (Kd) of 38 nM.

B11: the Kd was 1.73 nM.

As for B12, the Kd amounted to 304 nM.

Molecule B13 had a Kd of 261 nM.

As for B14, binding was characterised by a dissociation constant (Kd) of 2050 nM.

For B15, the Kd was determined as 149 nM.

B16: the Kd came out at 151 nM.

B17 showed a Kd of 214 nM.

The molecule B18 gave a Kd of 120 nM.

Take B19: binding was characterised by a dissociation constant (Kd) of 252 nM.

Regarding B20, binding was characterised by a dissociation constant (Kd) of 326 nM.

The molecule B21 registered a Kd of 132 nM.

Consider B22, for which the Kd amounted to 16.8 nM.

B23: the Kd came out at 5.28 nM.

B24 came in with a Kd of 167 nM.

As for B25, binding was characterised by a dissociation constant (Kd) of 723 nM.
